Measured values as given in the supplement of paper PMC9170038.

Tested on: K4 kissing-loop RNA reporter
Test: apparent KD of K4 kissing-loop reporter; higher = weaker reporter binding
Details: Eterna round: R107; input ligand: arginine 13.2 mM
Experimental: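 RNA-MaP round R107: designed RNA switches with theophylline, tryptophan, arginine or FMN aptamers are transcribed on-chip within common flanks. They are titrated with a labelled K4 kissing-loop RNA reporter in RNA-MaP buffer (100 mM Tris pH 7.5, 80 mM KCl, 4 mM MgCl2), without ligand or with the indicated ligand. Median apparent KD per design.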
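Further: bound reporter read as fluorescence of individual clusters on recovered sequencing chips by microscopy, with normalized cluster intensities fitted with a binding model.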

Row | Sequence | apparent KD of K4 kissing-loop reporter
1 | UCCUGCAAUCGACCACGAAAGUGGUUCGAUACCAGAGUCGAAAGACUCCCUUGGCAGCGAGUGAUGUUCGAGCAGGUAAAAUAAA | 436 nM
2 | AAAUUUAAUAUAUUUAAUUAAUUAAGUGAUACCAGACAUUAAUAAGUCCCUUGGCAGCACAAUGCAGUGAUGUUGCUUAUAAUAA [JR_SSTheophyA_Sub009] | 120 nM
3 | AGUAGUUGGACGGCCGCCACUGGAACAGCUUUGCCAAAGGCAGAGCACUAGAGUGAUGUUCUAGCUAGGACCGGGUCCAACUACA [whbob_SS_Tryp_B_t16] | 89.7 nM
4 | AAGUCAUAGGCAGGAUAUGCUUAGUAUUAAGGCCAUAUAUACGUAUAGAGUGAUGUUUUGUACCAGGCAGAAGGGCUACAUCCGU [FMN B Excl V5 (+2U)] | 562 nM
5 | UAAGAAUAAGUAGCAGUGAUGUUGCUACUACGAGGACCGGUACGGCCGCCACUCGAGCCGUACAAAGUAGCAACUAGUACGAAUA [(H1)-(H2)-(Trp1)-(Trp2)-(T)'-(H)'-(T)''] | 194 nM
6 | CCAGUUUGAGUGAUGUUCAGGCAUUGGUACGAGGAUAUCGAGGAGUUGAGAAGGCGUACUACUCAACUAUGUAUGAAUACAUACC [FMN A Ex t2] | 89 nM
7 | GCCUAGCAGCGAAGGAGCGCCAGGAGAAGAAAUGGAGAGAGUUGAGUGAUGUUCAAAUGGUGGCAGGUAGGUCGCGCUGCUAGGC [#08 K4 Arginine B Same State] | 261 nM
8 | UGAGGAGAGGGAAGGAGCGUGAAAGAGAAAGAAUAUAGUGAUGUUAUAUAGAAGAAAGAAUCACAGGUAGGUCGCCCGGAGGAGG [SSArgB.B] | 742 nM
9 | CGCAUACCUGCGCUAGUAGUGAUGUUACAGCGAGGACCGGUACGGCCGCCACUCGUGACGGUCGCAAAACGCGUUGCAGAACACU [theeternabot_exclusion_KL_Trp_A_32] | 183 nM
10 | GUCCCAGUGAUGUUGGUAGGCGAGCGGGAUACCAGCGAAGACUCACGCCCUUGGCAGCCCACAUAUCCCGCGUAGGGAUUAGCUC [Same State - Theophylline A (Freestyle 21)] | 315 nM
11 | AAACUUGCAGUGAUGUUGCAAGUAGGUGAUACCAGCAUCGAAAGAUGCCCUUGGCAGCACCAUCACUGUAAGUAGGUGCUGUCAA [(H1)-(H2)-(T1)-(T2)-(H)'-(T)'_Design5] | 88.5 nM
12 | AGUGAACGAGCGGCCGCCACUAAAUGAGUGAUGUUCGUGAGUAGUGCUGUUGUCAUGAUUGUUUUUAGGACCGGGUUCGAUGUUG [popplmullin] | 735 nM
13 | ACGCGCGCGAGUGAUGUUCGGAGCGGCUGGCAGGAUAUGCCGCAAGGCAGAAGGGUCGUGGCGCGUCCAGGGUAACCUGGACGCG [#2 Exclusion - FMN A Attempt #28 (HarryS)] | 401 nM
14 | UACAUUUUAUUAACACUAAAUACAACUGAAGGAGCGACAAUAAAGUCAGGUAGGUCGCAGAAUAAAUGAGUGAUGUUCAUUAUUG [JR_ExcArginiA_Sub016] | 101 nM
15 | AGCUUGGGUUCGGCCGCCACUCCACCCUUAGAAGUGAUGUUUCUCAUGCAUACGCGUCGUCAGAUGAGGACCGGGAAUGUAGUUG [theeternabot_exclusion_KL_Trp_B_24] | 444 nM
16 | GGAUAGGACAUAGGAUAUGGUAGUGAUGUUACCAAACUGGUUAAACAUGUCAGAAAACUGGCAUGACCAGAAGGAUGUCCUAUCG [FmnBX 27 U11+A75] | 63.2 nM
17 | UAACGGCAACAAGGAUAUCCCAGUGAUGUUGGGAGAUAUUGACUAAGGAGACAUGAUAGGCAUAAUGGAGAAGGUGUGUUGGGAG [theeternabot_exclusion_KL_FMN_B_19] | 116 nM
18 | AAAAUAAAGCAGUGAUGUUGCUUAUGAGAAGGAGCGCACGAAAGUGCAGGUAGGUCGCUCAGCCAAGUGGACGAAAACGUCCACA [#OpenEnded 10 #K4Early] | 122 nM
19 | GCGGGCCAGACGGCCGCCACUCCGGGCAGUGAUGUUGCGAAUCUUCUACUAGAGUGAUGUUCUACGAGGACCGGGUCGGAACGCG [Exclusion Tryptophan B Gf 14] | 384 nM
20 | AAUAAAAUCACGGCCGCCACUGAUUAUUUUAUUAGGAGUGAUGUUCCUAUGACAAUAUACCUUAACAGGACCGGGUGAAUAUUUA [JR_ExcTryptoB_Sub010] | 89.6 nM
21 | GCCGUAGAUUGAAGGAGCGCCGCACAUGUCCCGCUUAGUGUAGUGAUGUUACAGUGUCAGCGGCAGGUAGGUCGCAAUCUACGGC | 183 nM
22 | CUAAGGGAAGCAGGAUAUCGGUAUUAGUGUGUUAAAUAAACACUCGGGUAGUGAUGUUGCCCGUGGCGAGAAGGGCUACCAUUGG [Laace] | 44.8 nM
23 | AAGUGAUGUUGUAGUGAUGUUGUGAUGUUGCAGGAUAUAUAGUGAUGUAGAAGGGUAUGUGCAGUUUUUUUUUUUGAGUGUUGAU [dpdmullin] | 34.2 nM
24 | UGUUAUGUAUCAGGAUAUUAGUGUUGUUUGUUUAUGUUAGUGAUGUUGAUAUUUGUUUUAUGUAUUUAAGAAGGGAUUGAGAUGU [kkplmullin] | 339 nM

Same assay, conditions: Eterna round: R107; input ligand: none

Row | Sequence | apparent KD of K4 kissing-loop reporter
25 | UGUACCGAGUCAGGAUAUGUCGUCGAAAGACGAAAUGGAGUGAUGUUCCUUAAACUGCGAAAGCAGACAGAAGGGAUUUGGUACU [FmnBS 29 U77] | 739 nM
26 | GGAUAGGAUAGAGGAUAUGGGCUAGGCAAGAAUAACUUGUCUAGCAAAUCCAUGAGGAGUGAUGUUCCAGAAGGCUAUCCUAUCG [FmnBX 1 U9+A77] | 164 nM
27 | CGAAUGGAACUAUUGAACAUUUGUAUUGGCAAGGAUAUCGGGCUAUCGAGAAGGUGCUAUUUGGGCAGUGAUGUUGCCGAUUUAA [theeternabot_sameState_KL_FMN_A_10] | 54.1 nM
28 | GACACACUUUCAGGUGUCCAGUGACUGGAUACCAGCAUGGAAACAUGCCCUUGGCAGCCAGAACUGGAAGUGAUGUUUCCAGUAA [Theo A Mod Design7 (Brourd)] | 346 nM
29 | AGCUCAGAGUGACUCGAUAAGAGUCACAAACGAGGACCGGUACGGCCGCCACUCGAAAUAAAGAGAGUGAUGUUCUCGCUGAGCA [FiskerMod 9 - Jieux - Same State Tryptophan A] | 223 nM
30 | UGUAUUUCGGCGGCCGCCACUGACCAUAGCCUUCGAUGGCCAGUGAUGUUGGCCUCUGGCUCUAACAGGACCGGGCCGAAUUGCG [Usvediin] | 190 nM
31 | GCAUCCAUGGCAGGAUAUAGGUUCGUGGAGUGAUGUUCCAUAGCCCGAGUGAUGUUCGUUAUCCGCCUAGAAGGGCCGUGGAUGC [whbob_Ex_FMNB__2th214] | 235 nM
32 | AGGUACAAAAGUACCGCUAGAUCCACGGAAGGAGCGCCCGAAAGGGCAGGUAGGUCGCCGGGCAGUGAUGUUGCCGGAUCUAGCA [Omei KL Arginine A SS A v6] | 156 nM
33 | UCCUGCAAUCGACCACGAAAGUGGUUCGAUACCAGAGUCGAAAGACUCCCUUGGCAGCGAGUGAUGUUCGAGCAGGUAAAAUAAA | 567 nM
34 | AAAUUUAAUAUAUUUAAUUAAUUAAGUGAUACCAGACAUUAAUAAGUCCCUUGGCAGCACAAUGCAGUGAUGUUGCUUAUAAUAA [JR_SSTheophyA_Sub009] | 76.6 nM
35 | AGUAGUUGGACGGCCGCCACUGGAACAGCUUUGCCAAAGGCAGAGCACUAGAGUGAUGUUCUAGCUAGGACCGGGUCCAACUACA [whbob_SS_Tryp_B_t16] | 440 nM
36 | AAGUCAUAGGCAGGAUAUGCUUAGUAUUAAGGCCAUAUAUACGUAUAGAGUGAUGUUUUGUACCAGGCAGAAGGGCUACAUCCGU [FMN B Excl V5 (+2U)] | 699 nM
37 | UAAGAAUAAGUAGCAGUGAUGUUGCUACUACGAGGACCGGUACGGCCGCCACUCGAGCCGUACAAAGUAGCAACUAGUACGAAUA [(H1)-(H2)-(Trp1)-(Trp2)-(T)'-(H)'-(T)''] | 223 nM
38 | CCAGUUUGAGUGAUGUUCAGGCAUUGGUACGAGGAUAUCGAGGAGUUGAGAAGGCGUACUACUCAACUAUGUAUGAAUACAUACC [FMN A Ex t2] | 125 nM
39 | GCCUAGCAGCGAAGGAGCGCCAGGAGAAGAAAUGGAGAGAGUUGAGUGAUGUUCAAAUGGUGGCAGGUAGGUCGCGCUGCUAGGC [#08 K4 Arginine B Same State] | 432 nM
40 | UGAGGAGAGGGAAGGAGCGUGAAAGAGAAAGAAUAUAGUGAUGUUAUAUAGAAGAAAGAAUCACAGGUAGGUCGCCCGGAGGAGG [SSArgB.B] | 479 nM
